Tested on: SMN
Assay: SMN levels in mouse (ES-cell derived) motor neurons
Format: cell-based
Conditions: mouse motor neurons
Experimental: Mouse HB9-GFP derived SMN deficient motor neuron cells were incubated for 2 days with compounds from libraries and collections.
Motor neurons were produced from mouse ES-cells expressing cherry fluorescent protein (CFP) under the control of the motor neuron-selective Hb9 promoter, as previously described (Wichterle et al., 2002).
GFP expressing motor neurons were derived from mouse ES cells as described below. After growing for approximately 1 week, motor neurons were treated with allsterpaullone. Two days after treatment with allsterpaullone, cells were fixed and stained with SMN antibody or GFP antibody.
mES cells were differentiated into motor neurons according to methods adapted from Wichterle et. al., Cell (2002), 110:385-397. Briefly, mES cells were grown to 70-80% confluence in 10-cm plates (Falcon) in ES cell medium. To form embryoid bodies, cells were washed once with PBS to eliminate mES medium and then incubated with 1 ml of 0.25% trypsin (GIBCO) for 5-10 min at 21-25° C. (RT). Cells were then resuspended in 10 ml of DM1 medium (DMEM-F12, GIBCO), 10% knockout serum (GIBCO), penicillin, streptomycin, glutamine (GIBCO) and 2-mercaptoethanol (GIBCO), counted and plated at a concentration of 200,000 cells per ml in Petri dishes (Falcon). […] The cells were counted and plated on poly-ornithine coated 96-well plates (VWR).

B1: BMP4: bone morphogenetic protein 4, BMP/TGFβ ligand (protein, UniProt P12644 293-408, looked up)
Bone morphogenetic protein 4: SPKHHSQRARKKNKNCRRHSLYVDFSDVGWNDWIVAPPGYQAFYCHGDCPFPLADHLNSTNHAIVQTLVNSVNSSIPKACCVPTELSAISMLYLDEYDKVVLKNYQEMVVEGCGCR
SMN levels in motor neurons (in words): increase SMN levels

Source: US20120010178A1, “METHODS AND COMPOUNDS FOR TREATMENT OF NEURODEGENERATIVE DISORDERS” (PRESIDENT AND FELLOWS OF HARVARD COLLEGE, priority 2008, published 2012)
